Measurements from US20130060011A1 (published 2013).

How the values were obtained:
human MCSP = human MCSP (human, UniProt Q6UVK1 30-2322); assay: cell-based or functional assay
human CD3 = human CD3 (human, UniProt P07766 23-207); assay: cell-based or functional assay
human CD3, sequence (P07766 23-207): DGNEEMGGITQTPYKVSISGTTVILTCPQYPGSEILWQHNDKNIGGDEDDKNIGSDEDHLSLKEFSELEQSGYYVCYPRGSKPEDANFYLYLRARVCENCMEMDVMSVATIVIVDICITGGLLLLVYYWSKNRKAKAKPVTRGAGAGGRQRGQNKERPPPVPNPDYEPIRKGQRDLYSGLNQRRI

human MCSP, sequence (Q6UVK1 30-2322): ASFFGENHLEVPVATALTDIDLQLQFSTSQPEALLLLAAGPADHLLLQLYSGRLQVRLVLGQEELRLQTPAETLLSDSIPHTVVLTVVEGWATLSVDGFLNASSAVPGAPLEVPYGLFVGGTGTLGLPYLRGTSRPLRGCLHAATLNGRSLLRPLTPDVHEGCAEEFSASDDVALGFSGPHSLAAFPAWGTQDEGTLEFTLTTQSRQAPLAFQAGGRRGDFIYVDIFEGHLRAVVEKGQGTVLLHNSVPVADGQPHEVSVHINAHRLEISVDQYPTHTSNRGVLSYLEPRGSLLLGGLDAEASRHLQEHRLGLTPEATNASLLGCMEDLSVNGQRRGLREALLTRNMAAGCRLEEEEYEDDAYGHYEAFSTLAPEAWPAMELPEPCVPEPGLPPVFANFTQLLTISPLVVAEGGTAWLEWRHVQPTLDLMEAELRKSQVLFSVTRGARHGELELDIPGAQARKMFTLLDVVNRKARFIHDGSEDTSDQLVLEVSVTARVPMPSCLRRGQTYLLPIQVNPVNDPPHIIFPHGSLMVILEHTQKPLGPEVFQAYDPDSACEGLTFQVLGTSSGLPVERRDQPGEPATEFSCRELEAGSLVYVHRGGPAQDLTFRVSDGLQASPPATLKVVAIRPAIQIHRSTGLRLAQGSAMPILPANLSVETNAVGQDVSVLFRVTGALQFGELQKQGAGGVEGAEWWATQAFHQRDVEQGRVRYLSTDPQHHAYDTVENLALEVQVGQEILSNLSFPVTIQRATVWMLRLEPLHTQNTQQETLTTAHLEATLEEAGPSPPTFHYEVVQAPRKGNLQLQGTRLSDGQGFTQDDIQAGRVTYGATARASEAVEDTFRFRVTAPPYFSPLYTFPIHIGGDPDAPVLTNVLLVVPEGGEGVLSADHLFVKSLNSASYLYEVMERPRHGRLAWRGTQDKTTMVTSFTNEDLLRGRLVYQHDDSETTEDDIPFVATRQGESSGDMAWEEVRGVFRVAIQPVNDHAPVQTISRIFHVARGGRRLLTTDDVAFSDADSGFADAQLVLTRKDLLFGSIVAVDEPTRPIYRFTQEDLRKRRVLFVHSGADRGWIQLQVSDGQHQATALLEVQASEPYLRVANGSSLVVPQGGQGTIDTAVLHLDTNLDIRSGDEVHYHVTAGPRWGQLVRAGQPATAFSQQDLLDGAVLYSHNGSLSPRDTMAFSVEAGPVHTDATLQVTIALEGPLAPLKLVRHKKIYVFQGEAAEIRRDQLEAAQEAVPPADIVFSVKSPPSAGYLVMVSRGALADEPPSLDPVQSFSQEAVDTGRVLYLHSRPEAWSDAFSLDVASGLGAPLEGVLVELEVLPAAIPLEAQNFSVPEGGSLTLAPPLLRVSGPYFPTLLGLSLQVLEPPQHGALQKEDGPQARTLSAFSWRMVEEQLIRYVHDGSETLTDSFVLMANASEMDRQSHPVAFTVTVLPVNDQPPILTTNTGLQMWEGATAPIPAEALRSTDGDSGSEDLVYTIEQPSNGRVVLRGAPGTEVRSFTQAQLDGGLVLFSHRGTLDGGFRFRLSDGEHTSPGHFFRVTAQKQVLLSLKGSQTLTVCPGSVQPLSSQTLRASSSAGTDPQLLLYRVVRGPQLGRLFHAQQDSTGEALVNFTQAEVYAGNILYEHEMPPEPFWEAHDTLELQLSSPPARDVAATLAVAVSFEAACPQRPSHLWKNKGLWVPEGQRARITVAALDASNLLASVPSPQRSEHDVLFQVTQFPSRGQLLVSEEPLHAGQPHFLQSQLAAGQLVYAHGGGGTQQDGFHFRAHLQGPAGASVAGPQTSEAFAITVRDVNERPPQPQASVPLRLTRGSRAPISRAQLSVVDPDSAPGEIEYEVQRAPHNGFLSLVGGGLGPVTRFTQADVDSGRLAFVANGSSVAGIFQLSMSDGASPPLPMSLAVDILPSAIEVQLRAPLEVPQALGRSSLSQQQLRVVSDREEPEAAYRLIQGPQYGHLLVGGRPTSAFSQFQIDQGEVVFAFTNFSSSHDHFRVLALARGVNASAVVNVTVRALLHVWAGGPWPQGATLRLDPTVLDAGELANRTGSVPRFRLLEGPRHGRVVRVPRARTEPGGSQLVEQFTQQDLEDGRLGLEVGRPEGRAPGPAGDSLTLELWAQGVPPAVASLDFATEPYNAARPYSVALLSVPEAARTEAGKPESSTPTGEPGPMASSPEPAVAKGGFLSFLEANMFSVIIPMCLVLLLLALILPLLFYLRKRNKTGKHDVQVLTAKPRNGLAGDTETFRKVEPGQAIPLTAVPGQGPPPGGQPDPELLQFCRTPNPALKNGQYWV

| Binder | Killing (as measured by LDH release) of MV-3 tumor cells upon co-culture with human PBMCs (E:T ratio=10:1), 24 hours; EC50 (human MCSP) | Killing (as measured by LDH release) of MV-3 tumor cells upon co-culture with human PBMCs (E:T ratio=10:1), 24 hours; EC50 (human CD3) |
| --- | --- | --- |
| hu Fab (MCSP)-Crossfab (CD3) (bispecific antibody) heavy: EVQLQESGPGLVKPSQSLSLTCSVTGYSITSGYYWNWIRQFPGNKLEWMGYITYDGSNNYNPSLKNRISITRDTSKNQFFLKLNSVTTEDTATYYCADFDYWGQGTTLTVSSASTKGPSVFPLAPSSKSTSGGTAALGCLVKDYFPEPVTVSWNSGALTSGVHTFPAVLQSSGLYSLSSVVTVPSSSLGTQTYICNVNHKPSNTKVDKKVEPKSCDGGGGSGGGGSDIQMTQSPSSLSASVGDRVTITCRASQDIRNYLNWYQQKPGKAPKLLIYYTSRLESGVPSRFSGSGSGTDYTLTISSLQPEDFATYYCQQGNTLPWTFGQGTKVEIKSSASTKGPSVFPLAPSSKSTSGGTAALGCLVKDYFPEPVTVSWNSGALTSGVHTFPAVLQSSGLYSLSSVVTVPSSSLGTQTYICNVNHKPSNTKVDKKVEPKSC light: DIVLTQSPSSLSASLGDRVTISCSASQGIRNYLNWYQQRPDGTVKLLIYYTSSLHSGVPSRFSGSGSGTDYSLTISNLEPEDIATYYCQQYSKLPWTFGGGTKLEIKRTVAAPSVFIFPPSDEQLKSGTASVVCLLNNFYPREAKVQWKVDNALQSGNSQESVTEQDSKDSTYSLSSTLTLSKADYEKHKVYACEVTHQGLSSPVTKSFNRGEC EVQLVESGGGLVQPGGSLRLSCAASGYSFTGYTMNWVRQAPGKGLEWVALINPYKGVSTYNQKFKDRFTISVDKSKNTAYLQMNSLRAEDTAVYYCARSGYYGDSDWYFDVWGQGTLVTVSSASVAAPSVFIFPPSDEQLKSGTASVVCLLNNFYPREAKVQWKVDNALQSGNSQESVTEQDSKDSTYSLSSTLTLSKADYEKHKVYACEVTHQGLSSPVTKSFNRGEC | 25.4 pM | 25.4 pM |
| (scFv)2 (antiMCSP/anti huCD3e) (bispecific antibody) scFv: DIVLTQSPSSLSASLGDRVTISCSASQGIRNYLNWYQQRPDGTVKLLIYYTSSLHSGVPSRFSGSGSGTDYSLTISNLEPEDIATYYCQQYSKLPWTFGGGTKLEIKGGGGSGGGGSGGGGSEVQLQESGPGLVKPSQSLSLTCSVTGYSITSGYYWNWIRQFPGNKLEWMGYITYDGSNNYNPSLKNRISITRDTSKNQFFLKLNSVTTEDTATYYCADFDYWGQGTTLTVSSGGGGSEVQLVESGGGLVQPGGSLRLSCAASGYSFTGYTMNWVRQAPGKGLEWVALINPYKGVSTYNQKFKDRFTISVDKSKNTAYLQMNSLRAEDTAVYYCARSGYYGDSDWYFDVWGQGTLVTVSSVEGGSGGSGGSGGSGGVDDIQMTQSPSSLSASVGDRVTITCRASQDIRNYLNWYQQKPGKAPKLLIYYTSRLESGVPSRFSGSGSGTDYTLTISSLQPEDFATYYCQQGNTLPWTFGQGTKVEIKHHHHHH | 57 pM | 57 pM |
